Substrate in this data set: C/C(C=O)=C\CC/C(C)=C/C=O
Put plainly: purified protein. It is filed as biochemical, Antirrhinum majus. Particulars: 50 μM NADPH fixed, 200 mM MOPS pH 7.0, 100 mM NaCl, 1% THF, 25 °C, 20 nM enzyme.

Our source for the Km and kcat values is article PMC5582856, “Inverted stereocontrol of iridoid synthase in snapdragon” (The Journal of Biological Chemistry, 2017).

The term Km denotes the substrate concentration at which the rate is half of its maximum. In general, kcat refers to the maximal rate divided by the concentration of active sites.

B1: AmISY (Am18679), Antirrhinum majus iridoid synthase (Antirrhinum majus) (protein)
chain: MSWWYRRSIGETEQKRIEINGVSPTYQSVALIVGVTGIAGSGLAETLSFSDTPGGPWKVYGVARRPCPKWLAKLNVNYVQCDIANTDETYSKVAPLTDITHIFYVSWTGSEDVALNTLMFKNILDSVIPNAPNLKHVSLQTGIKYYWGNMAEMDSTNQPHECPFYENMPRLKQDNFYYNLEDLVYDSAVRKNGLSWSIHRPALIFGFSPCSMMNTVSTLCVYAAICKHENKPLVYTGTETSWTCLWDAVDSDLLAEHFLWAATVPNAKNQAFNINNGDVFKWKHMWKVLAKEFDIEAIGYEGKEPVLLEDLMKDKDSVWDEIVKKHDLVPTKLRDIAAFWLADVVFRNKETLCSMNKNKEFGFMGFRDTTKSFVSSINKMRDFKFIP
notes: GenBank record is one of MF281392-MF281395 (not assigned in the text)
Consider B1, for which the Km amounted to 1.1 ± 0.1 µM and the turnover number (kcat) came out at 0.72 ± 0.02 s⁻¹.
